Reference: the supplement of paper PMC12764529
± gives the half width of the 95% confidence interval.

Experiments:
[1] = folding stability dG unfold from chymotrypsin proteolysis; higher = more stable
How it was run: (§1)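 Mini-proteins designed to be under 80 residues and free of cysteine were carried in a PA-tagged cDNA display construct and digested with trypsin and with chymotrypsin. Each protease was applied at 11 threefold-diluted concentrations, alongside a no-protease condition, before sequencing. K50 came from Bayesian fitting of the sequencing counts, and unfolding free energy was obtained by comparing it with a sequence-predicted unfolded-state K50 and a shared folded-state K50, for each protease separately or for both together. Designs were retained only if their AlphaFold2 dimer inter-PAE exceeded 15.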

[2] = folding stability dG unfold from trypsin proteolysis; higher = more stable
How it was run: as §1

[3] = folding stability dG unfold (combined trypsin and chymotrypsin); higher = more stable
How it was run: as §1

Sequence	folding stability dG unfold [1] [kcal/mol]	folding stability dG unfold [2] [kcal/mol]	folding stability dG unfold [3] [kcal/mol]
SAYLMFMIPIKNDEITIKIPVPPGYYVRIFVFFPDGMEPRTIPPDEKVKIKIPKPGAWIMIMVYPAEEMSAG [r14_882_TrROS]	5 ± 0.16	3.38 ± 0.12	4.41 ± 0.14
SAGGSAGGSAGGKVITVELPDDVTVTFFIPEDPDIVPVEVTPPDGSTLTLPAKDIRELLGSAGGSAGGSAGG [r7_769_TrMRF]	0.49 ± 0.12	0.159 ± 0.049	0.364 ± 0.1
SAGGSAGGSAGGLEEIRENGEALVFYPDGRVYRVDLKTGKITPPPGFKPENIVRVVFVKKSAGGSAGGSAGG [r7_566_TrMRF]	0.0292 ± 0.14	0.493 ± 0.1	0.301 ± 0.076
SAGGSAGGSAGMRIVIEVPEDTTVEELAKKLADLGYEVEIRVERDENGRLLVVIEIRPKDSAGGSAGGSAGG [r11_1050_TrROS_Hall]	2.88 ± 0.12	2.66 ± 0.088	2.8 ± 0.14
SAGGSAGGSAGGGRMLLTETETIFSPSGGESVVTRLVTVFRPPPPVFLPDPEGRWSELVSAGGSAGGSAGGS [r10_330_JUSTAS]	0.769 ± 0.3	0.999 ± 0.14	0.856 ± 0.22
SAGGSAGGEISPEDIESVETETRTLPNGLKITRTRVRVKKTNQWFELVRIEPLPAEELSEEELKSAGGSAGG [r6_757_TrROS_Hall]	1.78 ± 0.062	1.37 ± 0.053	1.59 ± 0.13
SAGGSAGGSAGGKIEIKTFPDGYVLAKIEFPDEDKALVILAKVKPNPGKVLEAIIRPADSAGGSAGGSAGGS [r10_613_TrMRF]	1.51 ± 0.062	1.2 ± 0.025	1.38 ± 0.097
SAGSSTTLTFPVDTKIPDEKGNPLSSSTVTVTVNPSPGKVTATLTDPATGTVTTVEFGSLEKVEAFLSSSAG [r14_508_JUSTAS]	-0.218 ± 0.18	1.29 ± 0.042	0.809 ± 0.067
SAGGSAGGMKITIEKLDPEKGVYLLTVKPPGPGKTLVIELPVEKEEEALAFAKKLEELGYEVENSAGGSAGG [r6_796_TrMRF]	1.57 ± 0.12	1.02 ± 0.02	1.34 ± 0.13
SAGGSAGMPPDEPVVKTTVIPTSTAVKDAAGNPLTPEELAAAVKAAYPDVEVSFGPGNTLTITLTRSAGGSA [r15_645_JUSTAS]	1.11 ± 0.05	1.33 ± 0.059	1.25 ± 0.091
SAGGENYTFEMEITIPIPLPNPNGKLKKLPIKVPIEYEYDDPAQRNQAMQNMIMRIIDLALKELGVPSAGGS [r16_339_TrROS]	2.12 ± 0.04	1.46 ± 0.048	1.9 ± 0.16
SAGGSAGGSMTPVPGGYVITIETPAPGGVPLATLYVPSREEAEAAIAEIPAEDLTAVTVEPVLLSAGGSAGG [r6_705_JUSTAS]	0.566 ± 0.13	0.714 ± 0.034	0.719 ± 0.081
SAGGSAGGPPPAKVVEVREVTLEDLENLDKLLVVFPDGKVYTSPEALRKWLEEGKPVLVAVFEGSAGGSAGG [r6_827_TrMRF]	1.96 ± 0.049	1.6 ± 0.084	1.88 ± 0.15
SAGGSAMAIFTVTPPDGVPVTERYSFTTPEEVEAAFAAAKAALPPGTALSVTLVPEEEVAAGRPLLSAGGSA [r15_469_JUSTAS]	1.59 ± 0.043	0.386 ± 0.027	1.23 ± 0.034
SAGGSAGGSAGGMTVTVEISIPVTVETSFFKPNKPYFKKKTINKKITIEIPNGEPLSLLSAGGSAGGSAGGS [r10_633_JUSTAS]	-0.0788 ± 0.2	0.492 ± 0.14	0.249 ± 0.13
SAAPGAEVIEEKEIEVGGYTVTIVYNKDTDTVTIFVRNPDGTITEFTIDADTLEITEVREIKLPPGVELSAG [r14_676_TrROS_Hall]	3.35 ± 0.06	2.24 ± 0.084	3 ± 0.12
SAGGSAMTVTVELEFEPVTVTDADGKEREVPVRVKVTAKVELVRDPETGELVERVEVTSIEIEVEPSAGGSA [r15_884_TrROS_Hall]	1.92 ± 0.079	1.73 ± 0.069	1.87 ± 0.15
